Measured values published in PMC4287497, “Phosphorylation of Elp1 by Hrr25 Is Required for Elongator-Dependent tRNA Modification in Yeast” (PLoS Genetics, 2015).
Values belong to the molecule of their own block, whether it stands above or below them.

Assays:
Kti12 [1] = biological target: Kti12 (UniProt P34253); experiment: Elp2-myc IP of Elongator, anti-HA blot for Kti12; conditions: reference: wild type Elp1; sites S1209
Kti12 [2] = biological target: Kti12 (UniProt P34253); experiment: GFP-trap IP of Elp1-GFP, anti-HA blot, densitometry; conditions: reference: wild type Elp1-GFP; sites S1209
Elp1-S1209A-GFP = biological target: T1, Elp1-S1209A-GFP (S. cerevisiae, UniProt Q06706 1-1349, S1209A); experiment: co-IP; GFP-tagged Elp1 (genomic locus) precipitated with GFP-trap from yeast extracts; Western blot with anti-GFP and anti-HA; densitometry of Kti12-HA normalised to Elp1-GFP, wild type set to 1.0; conditions: partners not purified
T1 construct: Elp1 (Iki3), S. cerevisiae; also called mutant Elp1-GFP fusion; source: S. cerevisiae, expressed from its genomic locus, in cell extract
T1 sequence (looked up): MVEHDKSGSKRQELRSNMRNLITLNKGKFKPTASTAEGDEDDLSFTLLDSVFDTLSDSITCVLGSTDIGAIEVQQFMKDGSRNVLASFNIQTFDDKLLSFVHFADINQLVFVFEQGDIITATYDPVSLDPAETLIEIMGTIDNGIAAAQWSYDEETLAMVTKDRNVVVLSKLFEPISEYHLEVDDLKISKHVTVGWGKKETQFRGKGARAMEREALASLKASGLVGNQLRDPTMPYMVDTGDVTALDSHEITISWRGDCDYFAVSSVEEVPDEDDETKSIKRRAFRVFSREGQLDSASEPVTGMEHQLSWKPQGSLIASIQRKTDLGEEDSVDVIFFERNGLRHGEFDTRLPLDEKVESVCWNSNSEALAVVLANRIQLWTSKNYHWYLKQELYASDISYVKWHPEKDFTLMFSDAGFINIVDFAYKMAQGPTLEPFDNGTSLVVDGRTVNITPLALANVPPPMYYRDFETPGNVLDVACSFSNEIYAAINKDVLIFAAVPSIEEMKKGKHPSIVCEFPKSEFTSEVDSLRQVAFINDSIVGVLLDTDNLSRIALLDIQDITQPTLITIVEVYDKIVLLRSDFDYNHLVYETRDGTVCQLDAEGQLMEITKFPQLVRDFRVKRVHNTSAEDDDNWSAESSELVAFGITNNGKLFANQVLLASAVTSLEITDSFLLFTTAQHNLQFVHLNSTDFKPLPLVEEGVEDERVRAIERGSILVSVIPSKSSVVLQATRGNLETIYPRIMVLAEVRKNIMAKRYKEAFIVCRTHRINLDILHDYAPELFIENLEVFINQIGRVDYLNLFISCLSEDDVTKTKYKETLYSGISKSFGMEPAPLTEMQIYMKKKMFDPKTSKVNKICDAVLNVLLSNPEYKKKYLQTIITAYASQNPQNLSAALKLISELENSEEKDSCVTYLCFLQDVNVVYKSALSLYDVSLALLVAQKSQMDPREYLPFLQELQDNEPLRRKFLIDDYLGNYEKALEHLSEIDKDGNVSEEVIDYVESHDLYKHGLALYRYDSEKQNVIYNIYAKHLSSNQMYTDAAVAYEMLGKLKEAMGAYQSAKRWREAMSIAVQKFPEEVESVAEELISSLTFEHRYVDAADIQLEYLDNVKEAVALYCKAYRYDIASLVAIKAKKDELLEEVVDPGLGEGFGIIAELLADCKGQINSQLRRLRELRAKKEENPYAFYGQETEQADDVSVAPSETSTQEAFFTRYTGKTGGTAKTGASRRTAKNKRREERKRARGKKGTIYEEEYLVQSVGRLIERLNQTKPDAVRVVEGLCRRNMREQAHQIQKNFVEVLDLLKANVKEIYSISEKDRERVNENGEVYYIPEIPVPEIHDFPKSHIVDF

binding against the reference (Kti12 [1]): stronger
Molecule: Elp1 (Iki3) (from UniProt Q06706) S1209A

fold change (Kti12 [2]): stronger; reference 1.0
Molecule: Elp1 (Iki3) (from UniProt Q06706) S1209A Elp1-GFP

Kti12 co-precipitated, fold of wild-type Elp1 (Elp1-S1209A-GFP): ~2 fold of wild-type Elp1
B1: Kti12-HA6 (natural protein, S. cerevisiae, UniProt P34253 1-313, looked up)
chain: MPLVLFTGYPCSGKTTLAKHLVQLLQSKIDATPSLSKYSITYHSDESLGIKHSDYITSQDERKLRSEIISAVKRDLSKNKIVIVDSLNYIKGFRYQLHCEVKNLSTTFCVIQTLCPPETIFEWNKTSNPNPWEPELLNQLIQRYEEPNSSNRWDSPLFAILTPQDNITDYIDDICKVVFQTSKSAKNSGHNDPLSKGLQKPNSATVLKPASQSNFIQVLDIETSKIIKTIMNHIKSLTSIGGVSNGTRVIVSEGITDINDDGCFFVDLPIGNVVTLAQLQRLKRQFINFNKLRDIDQDRIGPLFADYLNKNLN
notes: Kti12, accessory protein of Elongator, S. cerevisiae; also called HA-tagged Kti12; source: S. cerevisiae KTI12-HA6 strains, in cell extract
